Residue numbers refer to the chain shown, from its start. Names and notes keep the numbering of the source.
B1: MBP-GGDEF_(SoPdeB), GGDEF domain of S. oneidensis PdeB, wild type (domain or fragment)
chain: RSLAVCYLDLEQFKLINDSCGHTAGDRMLAMVARAIQSCLGPQELLARIGGDEFGLVICDRTALAVAQLLKQIIAQVSLQVLHDKNCNYKVGLSIGVAFGRAPYINAQELLKDADIACIAAKAKGTNQIHIYDD
B2: SoGGDEF_(PdeB) K575S (domain or fragment)
chain: B1 chain with K122S
B3: SoGGDEF_(PdeB) K577S (domain or fragment)
chain: B1 chain with K124S

Key:
[1] = target: FimV_(SoHubP), C-terminal FimV domain of S. oneidensis HubP (S. oneidensis); test: interferometric scattering mass spectrometry
[2] = target: FimV_(SoHubP), C-terminal FimV domain of S. oneidensis HubP (S. oneidensis); test: BLI

stoichiometry N (GGDEF per FimV (2:2 complex)) [1] | Kd [2] [nM] | fold increase of KD against wild type [2] [fold] | Binder
1 | 200 |  | B1
 |  | 100 | B2
 |  | 10 | B3

Reference: article doi:10.1101/2021.08.12.456111
